Measurements as given in PMC10764798, “A natural biogenic nanozyme for scavenging superoxide radicals” (Nature Communications, 2024).

B1: DNA protection protein from Sulfolobus solfataricus (natural protein, UniProt P95855 1-188, looked up)
chain: MQEKPQEPKVVGVEILEKSGLDIKKLVDKLVKATAAEFTTYYYYTILRMHLTGMEGEGLKEIAEDARLEDRLHFELMTQRIYELGGGLPRDIRQLADISACSDAYLPENWKDPKEILKVLLEAEQCAIRTWKEVCDMTYGKDPRTYDLAQRILQEEIEHEAWFLELLYGRPSGHFRRSSPGNAPYSKK
notes: Carries an inorganic iron core; also called ssDps; S. solfataricus Dps; source: E. coli BL21(DE3), pet22b, ferrous salt added to the medium (biomineralized), purified; copies: 12
B2: Non-heme ferritin from Enterobacteriaceae (E. coli FTn) (natural protein, UniProt P0A998 1-165, looked up)
chain: MLKPEMIEKLNEQMNLELYSSLLYQQMSAWCSYHTFEGAAAFLRRHAQEEMTHMQRLFDYLTDTGNLPRINTVESPFAEYSSLDELFQETYKHEQLITQKINELAHAAMTNQDYPTFNFLQWYVSEQHEEEKLFKSIIDKLSLAGKSGEGLYFIDKELSTLDTQN
notes: Carries an inorganic iron core; also called EcFTn; source: E. coli BL21(DE3), pet22b, ferrous salt added to the medium (biomineralized), purified; copies: 24
B3: Bacterioferritin from Escherichia coli str. K-12 substr. MG1655 (natural protein)
chain: not shown
notes: Carries an inorganic iron core; also called EcBfr; Bfr; source: E. coli BL21(DE3), pet22b, ferrous salt added to the medium (biomineralized), purified; copies: 24

Target: the molecule itself
Test: negative-stain TEM and DLS; purified biomineralized ferritin, 0.1 mg/mL; stained with 1% uranyl acetate, JEM-1400 80 kV TEM; DLS at 25 °C; assembly of the subunits into the protein cage

Protein | binding result
B1 | binds
B2 | binds
B3 | binds
